Experiments:
human airway epithelia [1] = assay: Endotoxin responsiveness of primary human airway epithelia (HBD-2 mRNA real time PCR, NF-κB-luciferase); type: cell-based; settings: IL-1β 100 ng/ml, 24 hr, real time PCR
Protocol: FIG. 6 depicts endotoxin responsiveness of well-differentiated primary cultures of human airway epithelia. Polarized epithelia were treated with NTHi LOS (100 ng/ml), sCD14 (100 ng/ml) and LBP (250 ng/ml) by apical application in a 50 μl volume. Twenty-four hours later, epithelia were harvested and analyzed for HBD-2 mRNA expression by real time PCR. As depicted in FIG. 6A, apical stimulation of airway epithelia with NTHi LOS induced little change in HBD-2 MRNA expression (2 epithelia/trial, n=3 different donors, * indicates p<0.05). In contrast, IL-1β markedly induces HBD-2 mRNA. FIG. 6B depicts the polarity of epithelial responses to IL-1β and NTHi LOS. […]
FIG. 9 depicts the effects of MD-2 complementation on endotoxin responsiveness in human airway epithelia. […] Fold increase in HBD-2 mRNA expression were quantified by real time PCR. […] NF-κB-luciferase activity was measured 24 hr following endotoxin treatment (n=5 epithelia/condition, * indicates p<0.05). […] 24 hr after endotoxin treatment, HBD-2 expression was quantified by real time PCR. […]
Well differentiated human airway epithelia were treated with N. meningitidis LOS-sCD14 (5 ng LOS/ml), with or without the addition of cell culture supernatants containing rMD-2. […] HBD-2 expression was quantified by real time PCR. […]
Real-time PCR was employed to detect human β-defensin-2 and MD-2 and to quantify changes in expression. […]

human airway epithelia [2] = assay: MD-2 mRNA expression in human airway epithelia after stimuli (real time PCR); type: cell-based; settings: 18–24 hr stimulation
Protocol: Fold increase in MD-2 mRNA expression was quantified using real time PCR. FIG. 10 represents the results from three independent experiments on three different epithelial preparations. * indicates p<0.05.
Real-time PCR was employed to detect human β-defensin-2 and MD-2 and to quantify changes in expression. Real-time quantitative PCR was performed using a sequence detector (ABI PRISM 7700, Applied Biosystems, Foster City, Calif.) and Taqman technology (Roche Molecular Diagnostic Systems) following the manufacturer's protocols (Bustin, 2000). The primers and probes were designed using the Primer Express program (Applied Biosystems). For MD-2, the primers were-forward5′-[…]-3′ (SEQ ID NO:11), reverse 5′-GCATTTCTTCTGGGCTCCC-3′ (SEQ ID NO:12), and probe 5′-[…]-3′ (SEQ ID NO:13). For HBD-2, the forward primer was-5′-[…]-3′ (SEQ ID NO:14), the reverse primer-5′-[…]-3′ (SEQ ID NO:15), and the probe was-5′-[…]-3′ (SEQ ID NO:16). Both probes contain a fluorescent reporter (6-Carboxyfluorescein [FAM]) at the 5′ end and a fluorescent quencher (6-Carboxytetramethylrhodamine [TAMRA]) at the 3′ end. As an internal control for normalization, human GAPDH real-time quantitative PCR was conducted in every reaction. The primers and probes were purchased from Roche Molecular Diagnostic Systems. The PCR fragments were amplified for 40 cycles (15 sec at 95° C. and 1 min at 60° C.). […]

TLR4 = molecular target: T1, TLR4 (Homo sapiens, UniProt O00206+Q9Y6Y9); assay: HEK cell activation assay: extracellular IL-8 by ELISA; type: cell-based
T1 construct: host or cells: HEK293 stably transfected with TLR4 (HEK/TLR4)
T1 sequence (O00206 24-839): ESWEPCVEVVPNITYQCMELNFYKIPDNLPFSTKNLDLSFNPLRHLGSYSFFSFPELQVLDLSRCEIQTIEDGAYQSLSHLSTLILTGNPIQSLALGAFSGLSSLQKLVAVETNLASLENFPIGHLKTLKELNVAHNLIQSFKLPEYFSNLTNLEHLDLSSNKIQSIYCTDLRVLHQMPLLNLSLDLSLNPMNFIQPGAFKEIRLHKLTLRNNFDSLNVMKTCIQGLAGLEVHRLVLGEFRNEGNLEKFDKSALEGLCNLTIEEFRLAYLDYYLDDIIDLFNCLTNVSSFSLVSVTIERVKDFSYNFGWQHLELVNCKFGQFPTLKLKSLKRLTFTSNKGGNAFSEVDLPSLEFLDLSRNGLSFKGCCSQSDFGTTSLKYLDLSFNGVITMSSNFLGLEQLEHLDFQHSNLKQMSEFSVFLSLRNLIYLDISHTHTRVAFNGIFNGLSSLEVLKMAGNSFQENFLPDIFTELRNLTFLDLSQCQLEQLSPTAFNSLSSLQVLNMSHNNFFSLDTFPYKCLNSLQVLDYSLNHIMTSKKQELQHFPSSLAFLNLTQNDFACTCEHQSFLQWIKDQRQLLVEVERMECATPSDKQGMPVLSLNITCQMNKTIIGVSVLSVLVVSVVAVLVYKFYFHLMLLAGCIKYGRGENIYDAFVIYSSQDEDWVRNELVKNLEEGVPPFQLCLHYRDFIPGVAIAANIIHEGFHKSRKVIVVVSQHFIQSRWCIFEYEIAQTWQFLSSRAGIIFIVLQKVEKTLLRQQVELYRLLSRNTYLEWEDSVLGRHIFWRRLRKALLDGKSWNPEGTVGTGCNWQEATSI
T1 sequence (Q9Y6Y9 19-160): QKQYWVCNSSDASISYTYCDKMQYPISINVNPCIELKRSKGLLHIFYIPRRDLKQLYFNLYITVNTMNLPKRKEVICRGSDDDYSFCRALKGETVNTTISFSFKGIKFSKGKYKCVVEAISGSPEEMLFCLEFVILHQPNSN
From the text: Conditioned insect cell culture medium containing soluble, polyhistidine-tagged recombinant wild-type (wt) or C95Y mutant MD-2 were generated according to the method of Viriyakosol et al. (2001). A human embryonic kidney cell line (HEK293) that stably expresses TLR4 (HEK/TLR4), but lacks both CD14 and MD-2 (Yang et al., 2000), was used to evaluate the effect of MD-2 on the ability of lipooligosaccharide (LOS) to interact with TLR4 and promote activation.
FIG. 1 depicts the expression and bioactivity of recombinant MD-2-His6. FIGS. 1A and 1B depict SDS-PAGE immunoblots of control culture medium (FIG. 1A, lane 1) or medium from HiFive cells infected with recombinant baculovirus encoding wt (FIG. 1A, lane 2; FIG. 1B, lanes 1–3) or C95Y MD-2 (FIG. 1B, lane 4). MD-2 was detected using anti-(His)4 antibody. All samples represent 1 μl of culture medium except B, lanes 2 and 3, which represent 0.3 and 0.1 μl and A, lane 3, which represents molecular weight markers. In FIG. 1C, HEK/TLR4 cells were incubated in HEPES-buffered HBSS+/0.1% albumin with [^14C]-LOSagg (3 ng/ml)+/−LBP (30 ng/ml) and/or (60 μl) culture medium containing wt MD-2 (MD-2) (open bars); LOSagg+LBP and sCD14 (250 ng/ml)+/−wt (closed bars) or C95Y “MD-2” (striped bars), or [^14C]-LOS-sCD14 (2 ng LOS/ml)+/−wt or C95Y “MD-2” (closed bars). After overnight incubation, extracellular IL-8 was assayed by ELISA. In FIG. 1D, HEK/TLR4 cells were incubated with increasing amounts of wt (▪) or C95Y (◯) MD-2+[^14C]-LOS-sCD14 (2 ng/ml) and cell activation measured. Results shown are from one experiment (duplicate samples) representative of four independent experiments.
In FIG. 2, a bioactive complex (Mr˜25,000) containing MD-2 and [^14C]-LOS is formed by incubation of [^14C]-LOS-sCD14 with wt, but not C95Y, MD-2. In FIG. 2A, dialyzed control insect cell medium (◯) or medium containing wt (♦) or C95Y ( ? ) MD-2 was incubated for 30 min, 37° C. with (1:1 vol/vol) [^14C]-LOS-sCD14 in HBSS+, 10 mM HEPES and chromatographed on Sephacryl S100. Column fractions were analyzed for [^14C]-LOS. Identical results were obtained in analytical (5 ng [^14C]-LOS/ml+200 μl culture medium) or more preparative runs (reagents concentrated 20×). In FIG. 2B, peak fractions (Mr˜25,000) from treatment of [^14C]-LOS-sCD14 with wt MD-2 (FIG. 2A) were re-chromatographed on S100 in HBSS+, 10 mM HEPES without HSA; recovery of [^14C]-LOS was >80%. In FIG. 2C, HEK (□) or HEK/TLR4 (▪) were incubated overnight with the indicated amounts of LOS added as purified Mr˜25,000 (LOS-MD-2) complex. Cell activation was measured by IL-8 accumulation. Results shown correspond to one experiment, in duplicate, representative of three similar experiments. FIGS. 2D and 2E depict adsorption and elution of bioactive Mr˜25,000 complex to HisBind resin. Peak fractions of the purified complex (FIG. 2B; 10 ng [^14C]-LOS) were dialyzed against PBS and incubated with HisBind resin (0.125 ml) for 1 hr at 25° C. and processed as described in Methods. Non-adsorbed (Flow-thru) and adsorbed material eluted with 200 mM imidazole were precipitated with trichloroacetic acid to concentrate sample for SDS-PAGE/immunoblot analysis. […]
Purified [^14C]-LOSagg or [^14C]-LOS-sCD14 (3 ng LOS/ml)+/−indicated proteins (30 ng/ml LBP, 250 ng/ml sCD14, 60 μl culture medium) were incubated at 37° C. for 30 min. After this incubation, samples were analyzed by gel filtration chromatography to monitor formation of [^14C]-LOS-MD-2 and by incubation with HEK/TLR4 cells to measure cell activation. […]

MD-2 = assay: Formation of [^14C]-LOS-MD-2 complex monitored by gel filtration chromatography; type: binding, human; settings: 30 min, 37° C., Sephacryl S100
Protocol: In FIG. 2, a bioactive complex (Mr˜25,000) containing MD-2 and [^14C]-LOS is formed by incubation of [^14C]-LOS-sCD14 with wt, but not C95Y, MD-2. In FIG. 2A, dialyzed control insect cell medium (◯) or medium containing wt (♦) or C95Y ( ? ) MD-2 was incubated for 30 min, 37° C. with (1:1 vol/vol) [^14C]-LOS-sCD14 in HBSS+, 10 mM HEPES and chromatographed on Sephacryl S100. Column fractions were analyzed for [^14C]-LOS. Identical results were obtained in analytical (5 ng [^14C]-LOS/ml+200 μl culture medium) or more preparative runs (reagents concentrated 20×). […] Cell activation was measured by IL-8 accumulation. […]
Purified [^14C]-LOSagg or [^14C]-LOS-sCD14 (3 ng LOS/ml)+/−indicated proteins (30 ng/ml LBP, 250 ng/ml sCD14, 60 μl culture medium) were incubated at 37° C. for 30 min. After this incubation, samples were analyzed by gel filtration chromatography to monitor formation of [^14C]-LOS-MD-2 and by incubation with HEK/TLR4 cells to measure cell activation.
Columns of Sephacryl HR S200 (1.6 cm×30 cm) or S100 (1.0 cm×60 cm) were pre-equilibrated in 10 mM HEPES, HBSS^++/−0.1% HSA. […] Aliquots of the collected fractions were analyzed by liquid scintillation spectroscopy using a Beckman LS liquid scintillation counter to detect [^14C]-LOS. […]

IL-1β: human recombinant IL-1β, positive control [reference compound]
increase in HBD-2 expression (human airway epithelia [1]): > 10,000 fold

CCCCCCCCCCCCCC(=O)O[C@@H]1[C@@H](C)[C@@]2(O)[C@@H](C=C(CO)C[C@]3(O)C(=O)C(C)=C[C@@H]23)[C@@H]2C(C)(C)[C@]12OC(C)=O [phorbol myristate acetate, reference compound]
steady state MD-2 mRNA levels (human airway epithelia [2]): induced

B1: C95Y MD-2 (protein)
chain: QKQYWVCNSSDASISYTYCDKMQYPISINVNPCIELKRSKGLLHIFYIPRRDLKQLYFNLYITVNTMNLPKRKEVIYRGSDDDYSFCRALKGETVNTTISFSFKGIKFSKGKYKCVVEAISGSPEEMLFCLEFVILHQPNSNHHHHHH
activation of HEK/TLR4 cells by LOS-sCD14 (or LOSagg+LBP+sCD14) on addition of medium containing MD-2 (TLR4; IL-8 release, LOS-sCD14 2 ng LOS/ml): not seen | inhibition of activation of HEK/TLR4 by [^14C]-LOS-MD-2 by added MD-2 (TLR4; [^14C]-LOS-MD-2 0.3 ng/ml, increasing amounts of conditioned medium): intermediate inhibitory effect | reaction with [^14C]-LOS-sCD14 to generate new Mr˜25,000 [^14C]-LOS-containing complex (MD-2): no change

B2: P6: outer membrane protein P6 from non-typeable Haemophilus influenzae (protein, UniProt P10324 20-153, looked up)
Peptidoglycan-associated …: CSSSNNDAAGNGAAQTFGGYSVADLQQRYNTVYFGFDKYDITGEYVQILDAHAAYLNATPAAKVLVEGNTDERGTPEYNIALGQRRADAVKGYLAGKGVDAGKLGTVSYGEEKPAVLGHDEAAYSKNRRAVLAY
steady state MD-2 mRNA levels (human airway epithelia [2]): marked increases

— patent US7164008B2, “Isolated complexes of endotoxin and MD-2” (priority 2003, dated 2007)
